Test results: PMC4720288

Molecular target: human MALT1_(Casp-Ig3)(338–719) (human) (UniProt Q9UDY8)
Experiment: crystal structure; in-house X-ray structure of apo MALT1_(Casp-Ig3), data not published

- stoichiometry N: 2
Substance: human MALT1_(Casp-Ig3)(338–719) (from UniProt Q9UDY8 338-719) (domain or fragment)
